According to FireProtDB (doi:10.1038/nsb0196-54):

B1: Regulatory protein rop, P03051 (parent)
chain: MTKQEKTALNMARFIRSQTLTLLEKLNELDADEQADICESLHDHADELYRSCLARFGDDGENL

Variants of: B1
Conditions: Escherichia coli, pH 7, Thermal, CD, Sodium phosphate 10 mM, NaCl 350 mM, structure 1ROP, whole UniProt chain shown; for ddG of mutation (higher = less stable): 69 °C

Variant	ddG of mutation (higher = less stable) [kcal/mol]	Tm [°C]	change of melting temperature, mutant - wild type (higher = more stable) [°C]
MTKQEKTALNMARFIRSQTLTLLEKLNELIADEQADICESLHDHADELYRSCLARFGDDGENL [D30I]	0.8	63.4	-5.3
MTKQEKTALNMARFIRSQTLTLLEKLNELQADEQADICESLHDHADELYRSCLARFGDDGENL [D30Q]	-1.8	79.1	10.4
MTKQEKTALNMARFIRSQTLTLLEKLNELSADEQADICESLHDHADELYRSCLARFGDDGENL [D30S]	-1	74.7	6
MTKQEKTALNMARFIRSQTLTLLEKLNELRADEQADICESLHDHADELYRSCLARFGDDGENL [D30R]	-0.8	–	–
MTKQEKTALNMARFIRSQTLTLLEKLNELLADEQADICESLHDHADELYRSCLARFGDDGENL [D30L]	0.1	68.4	-0.3
MTKQEKTALNMARFIRSQTLTLLEKLNELHADEQADICESLHDHADELYRSCLARFGDDGENL [D30H]	-0.9	74.5	5.8
MTKQEKTALNMARFIRSQTLTLLEKLNELFADEQADICESLHDHADELYRSCLARFGDDGENL [D30F]	0.1	68.3	-0.4
MTKQEKTALNMARFIRSQTLTLLEKLNELWADEQADICESLHDHADELYRSCLARFGDDGENL [D30W]	0.4	65.9	-2.8
MTKQEKTALNMARFIRSQTLTLLEKLNELVADEQADICESLHDHADELYRSCLARFGDDGENL [D30V]	0.4	66.6	-2.1
MTKQEKTALNMARFIRSQTLTLLEKLNELTADEQADICESLHDHADELYRSCLARFGDDGENL [D30T]	0.4	66.6	-2.1
MTKQEKTALNMARFIRSQTLTLLEKLNELEADEQADICESLHDHADELYRSCLARFGDDGENL [D30E]	-1	74.9	6.2
MTKQEKTALNMARFIRSQTLTLLEKLNELKADEQADICESLHDHADELYRSCLARFGDDGENL [D30K]	-0.9	74.6	5.9
MTKQEKTALNMARFIRSQTLTLLEKLNELYADEQADICESLHDHADELYRSCLARFGDDGENL [D30Y]	-0.2	70.4	1.7
MTKQEKTALNMARFIRSQTLTLLEKLNELAADEQADICESLHDHADELYRSCLARFGDDGENL [D30A]	-0.3	71.2	2.5
MTKQEKTALNMARFIRSQTLTLLEKLNELPADEQADICESLHDHADELYRSCLARFGDDGENL [D30P]	1.6	58.9	-9.8
MTKQEKTALNMARFIRSQTLTLLEKLNELMADEQADICESLHDHADELYRSCLARFGDDGENL [D30M]	-0.6	72.7	4
MTKQEKTALNMARFIRSQTLTLLEKLNELGADEQADICESLHDHADELYRSCLARFGDDGENL [D30G]	-2	80.3	11.6
MTKQEKTALNMARFIRSQTLTLLEKLNELCADEQADICESLHDHADELYRSCLARFGDDGENL [D30C]	-0.8	74	5.3
MTKQEKTALNMARFIRSQTLTLLEKLNELNADEQADICESLHDHADELYRSCLARFGDDGENL [D30N]	-0.8	73.8	5.1
